This is an account of results in paper PMC12668182.

For data set [1], the target named is HaloTag-CSB, full length, JaneliaFluor-labelled (human) (UniProt Q03468). The data set is described as follows: single-molecule fluorescence on tethered DNA (SMADNE, LUMICKS C-Trap); oligomerisation state of HaloTag-CSB (photon counts) in events colocalised with SNM1A on lambda dsDNA; DNA present.
Data set [2] shares this target. The data set is described as follows: single-molecule fluorescence on tethered DNA (SMADNE, LUMICKS C-Trap); oligomerisation state of HaloTag-CSB (photon counts) at the site-specific ICL repair intermediate, alone or colocalised with SNM1A; DNA present.
Data set [3] shares this target. As to the kind of experiment: single-molecule fluorescence on tethered DNA (SMADNE, LUMICKS C-Trap); two-colour HaloTag-CSB nuclear extracts (JF552 and JF635) on lambda dsDNA; colocalisation and photon counts; 20 mM HEPES pH 7.5, 10% glycerol, 1 mM DTT, 1 mM MgCl2; 30 C; DNA present.
In data set [4] the test system is HaloTag-CSB full-length (nuclear extract, SMADNE);HaloTag-SNM1A catalytic domain. As to the kind of experiment: single-molecule (optical tweezers C-Trap). The note with it: EMSA: 20 mM HEPES-KOH pH 7.5, 50 mM KCl, 0.05% Triton X-100, 0.5 mM TCEP, 5% glycerol, 1 nM oligo, 4 C, C-Trap: 20 mM HEPES pH 7.5, 10% glycerol, 1 mM DTT.
The test system of data set [5] is HaloTag-SNM1A catalytic domain. The data set is described as follows: single-molecule (optical tweezers C-Trap). To be noted: EMSA: 20 mM HEPES-KOH pH 7.5, 50 mM KCl, 0.05% Triton X-100, 0.5 mM TCEP, 5% glycerol, 1 nM oligo, 4 C, C-Trap: 20 mM HEPES pH 7.5, 10% glycerol, 1 mM DTT.
The target of data set [6] is full-length CSB (ERCC6), wild type, recombinant (human) (UniProt Q03468). The data set is described as follows: SEC; purification of full-length CSB alone on Superdex S200; retention volume compared with calibration curves; 50 mM HEPES pH 8, 300 mM NaCl, 1 mM TCEP; monomer to dimer.
Data set [7] relates to HaloTag-CSB full-length (nuclear extract, SMADNE). The data set is described as follows: single-molecule (SMADNE, optical tweezers C-Trap). To be noted: EMSA: 20 mM HEPES-KOH pH 7.5, 50 mM KCl, 0.05% Triton X-100, 0.5 mM TCEP, 5% glycerol, 1 nM oligo, 4 C, C-Trap: 20 mM HEPES pH 7.5, 10% glycerol, 1 mM DTT.
Setting [8] is: triazole click ICL (azide-C6-amino-dA x octadiynyl-dU), 5'P flap.

pKd: −log10 of the molar value.

As for “HaloTag-CSB, full length, JaneliaFluor-labelled (from UniProt Q03468 1-1493) (natural protein)”, the percent of CSB:SNM1A colocalisation events on lambda DNA in which CSB was a dimer in data set [1] stood at 73%. In data set [2], this substance gave a percent of CSB events at the ICL repair intermediate that were dimeric of 78% and a percent of SNM1A:CSB events on ICL repair intermediates with dimeric CSB of 90%. In data set [3], the percent of CSB binding events on lambda DNA that were dimeric was determined as 35% and the percent of single colour tracks in which a dimeric CSB bound to DNA came out at 20%.
In the case of ICL flap repair intermediate (C-Trap), the negative-log Kd (pKd) in data set [4] (setting [8]) was 7.35; in data set [5] (setting [8]), 6.45.
On to “full-length CSB (ERCC6), wild type, recombinant (from UniProt Q03468 1-1493) (natural protein)”, for which the stoichiometry N in data set [6] worked out at 2.
lambda DNA (undamaged): the negative logarithm of the Kd (pKd) is 8.92 in data set [7], 7.76 in data set [4] and 7.66 in data set [5].
